According to US20240141039A1 (AGENUS, published 2024):
Each block holds one binder with its values, some of them ahead of it.

Tests used:
[1] = biological target: T1, full-length isoform 2 ECD of cynomolgus monkey CD96 (His-tagged) (cynomolgus monkey); assay: SPR Biacore T200, geomean of experiments #1 and #2
T1 construct: also called His-tagged isoform 2 of cynomolgus monkey CD96; cyno CD96 extracellular domain isoform 2
T1 chain: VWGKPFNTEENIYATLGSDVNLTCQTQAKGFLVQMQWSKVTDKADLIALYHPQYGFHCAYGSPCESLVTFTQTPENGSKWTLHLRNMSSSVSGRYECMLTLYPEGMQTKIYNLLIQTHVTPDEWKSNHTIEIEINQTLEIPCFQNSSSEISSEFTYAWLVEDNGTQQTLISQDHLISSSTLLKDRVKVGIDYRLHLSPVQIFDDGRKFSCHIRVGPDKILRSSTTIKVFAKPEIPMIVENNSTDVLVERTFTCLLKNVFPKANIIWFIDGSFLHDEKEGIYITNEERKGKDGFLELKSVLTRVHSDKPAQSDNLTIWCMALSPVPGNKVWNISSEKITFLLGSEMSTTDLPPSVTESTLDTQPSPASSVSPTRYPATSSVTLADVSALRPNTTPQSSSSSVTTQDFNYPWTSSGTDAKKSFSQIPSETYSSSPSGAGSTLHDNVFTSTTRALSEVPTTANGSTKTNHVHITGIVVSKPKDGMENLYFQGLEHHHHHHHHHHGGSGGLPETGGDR
Method: (§1) Briefly, surface plasmon resonance experiments were performed using a Biacore T200 instrument, and the association rate (kₐ), dissociation rate (kd), and dissociation constant (KD) were calculated from each experiment using a 1:1 binding model with Biacore T200 Evaluation Software.
(§2) Multispecific molecules were captured using a 30-sec injection at a flow rate of 10 μl/min to reach about 350 resonance units (RUs). […] The sensor chip was regenerated between cycles with two 30-sec injections of 10 mM glycine, pH 1.5. Sensorgrams were evaluated and fit to a simple Langmuir 1:1 interaction model using the global data analysis option of BIAevaluation 3.0 software. Data quality was verified by visually inspecting deviations and curve fitting, and by evaluating the parameters of Rₘₐₓ, Chi2, and Tc.

[2] = biological target: T1, full-length isoform 2 ECD of cynomolgus …; assay: SPR Biacore T200, Protein A capture, 1:1 model, experiment #1
Method: as §1, §2

[3] = biological target: T2, wild type full-length human TIGIT expressed on cells (human, UniProt Q495A1 22-244); assay: flow cytometry, blocking of CD155-Fc-PE binding to human TIGIT CHO cells, geomean of 3 experiments
T2 construct: whole, on cells; also called human TIGIT-CHO; human TIGIT CHO cells
T2 sequence (looked up): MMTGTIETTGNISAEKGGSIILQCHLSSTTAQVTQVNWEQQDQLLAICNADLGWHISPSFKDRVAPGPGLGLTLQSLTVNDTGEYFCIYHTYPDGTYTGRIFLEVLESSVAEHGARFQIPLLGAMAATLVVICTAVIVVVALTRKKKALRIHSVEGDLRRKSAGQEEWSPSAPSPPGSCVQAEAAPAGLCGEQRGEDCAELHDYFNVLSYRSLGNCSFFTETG
Method: A 4× concentrated intermediate stock of each antibody was prepared in a microplate. Antibodies were serially diluted 1-to-4 in FACS buffer. […] Lastly, 25 μL of human TIGIT-CHO cells, prepared as described above, were added to each well. After a 30-minute incubation on ice, the cells were washed twice with cold FACS Buffer, and the cells were analyzed by flow cytometry (BD LSR Fortessa Flow Cytometer). The data were analyzed using the FlowJo software by sequentially gating on the FSC-A vs. SSC-A and SSC-H vs. SSC-A. Mean fluorescence intensity (MFI) values for PE were calculated, and the data were plotted by GraphPad Prism software and analyzed as described above.

[4] = biological target: T3, wild type full-length cynomolgus monkey TIGIT expressed on CHO cells (cynomolgus monkey, UniProt A0A7N9I9V4 89-312); assay: flow cytometry on CHO cells expressing cynomolgus TIGIT, PE anti-human IgG Fc detection
T3 construct: whole, on cells; also called cynomolgus TIGIT-CHO cells
T3 sequence (A0A7N9I9V4 entry or part of it): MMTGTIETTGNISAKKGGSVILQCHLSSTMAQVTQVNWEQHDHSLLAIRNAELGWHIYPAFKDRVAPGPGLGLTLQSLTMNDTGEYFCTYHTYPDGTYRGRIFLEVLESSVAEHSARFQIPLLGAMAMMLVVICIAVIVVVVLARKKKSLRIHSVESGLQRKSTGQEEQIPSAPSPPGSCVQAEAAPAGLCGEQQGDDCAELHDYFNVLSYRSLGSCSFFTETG

[5] = biological target: T2, wild type full-length human TIGIT …; assay: flow cytometry, human TIGIT CHO cells, geomean of 2 experiments
Method: The ability of anti-TIGIT antibodies to bind to wild type human TIGIT expressed on the surface of CHO cells was assessed. Briefly, CHO cells were transfected with a vector encoding wild type human TIGIT (human TIGIT-CHO), and clones stably expressing TIGIT were selected.
For the antibody binding assay, a frozen aliquot of human TIGIT-CHO cells was thawed at 37° C. and then transferred to a tube containing DPBS supplemented with 0.5% Bovine Serum Albumin and 0.05% Sodium Azide (FACS Buffer). Cells were centrifuged at 300 g for five minutes. The supernatant was discarded, and cells resuspended in FACS buffer were seeded in a 96-well U-bottom tissue culture plate at a density of […] cells per well in 50 μL. In a separate microplate, a 2× concentrated intermediate stock of each antibody was prepared. Antibodies were serially diluted 1-to-4 in FACS buffer. A total of 11 working dilutions ranging from 60 μg/mL to 0.000057 μg/mL were prepared. […] After a 30-minute incubation on ice, the cells were washed twice with cold FACS Buffer, and the cells were analyzed by flow cytometry (BD LSR Fortessa Flow Cytometer). The data were analyzed using the FlowJo software by sequentially gating the FSC-A vs. SSC-A, and SSC-H vs. SSC-A. Mean fluorescence intensity (MFI) values for PE were calculated, and the data were plotted by GraphPad Prism software.

[6] = biological target: T4, full-length ECD of human TIGIT (His-tagged) (human); assay: SPR Biacore T200, Protein A capture, 1:1 model, experiment #2
T4 construct: also called His-tagged human TIGIT; human TIGIT extracellular domain
T4 chain: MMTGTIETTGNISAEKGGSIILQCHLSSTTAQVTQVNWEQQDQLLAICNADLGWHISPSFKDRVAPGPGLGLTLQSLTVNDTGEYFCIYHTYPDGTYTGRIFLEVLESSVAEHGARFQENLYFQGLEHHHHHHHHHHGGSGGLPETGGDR
Method: as §1
as §2, with “1000” for “350”

Kd [1]: 45.3 nM
Kd [2]: 48 nM
koff [2]: 0.00379 s⁻¹
kon [2]: 79000 M⁻¹ s⁻¹
B1: anti-TIGIT×CD96 multispecific molecule BA123 (bispecific antibody, human IgG1, kappa, lambda)
heavy 1: QVQLVQSGAEVKKPGASVKVSCKASGYTFTSYGISWVRQAPGQGLEWMGWISAYNANTNYAQKLQGRVTMTTDTSTSTAYMELRSLRSDDTAVYYCARSAGVLGGMDVWGRGTLVTVSSASTKGPSVFPLAPSSKSTSGGTAALGCLVKDYFPEPVTVSWNSGALTSGVHTFPAVLQSSGLYSLSSVVTVPSSSLGTQTYICNVNHKPSNTKVDKRVEPKSCDKTHTCPPCPAPELLGGPDVFLFPPKPKDTLMISRTPEVTCVVVDVSHEDPEVKFNWYVDGVEVHNAKTKPREEQYNSTYRVVSVLTVLHQDWLNGKEYKCKVSNKALPAPIEKTISKAKGQPREPQVYTLPPSREEMTKNQVSLSCAVKGFYPSDIAVEWESNGQPENNYKTTPPVLDSDGSFFLVSKLTVDKSRWQQGNVFSCSVMHEALHNHYTQKSLSLSPG
light 1: not shown
heavy 2: EVQLVQSGAEVKKPGSSVKVSCKASGYTFASYGISWVRQAPGQGLEWMGGITPFFNRVDVAEKFQGRVTITADKSTSTAYIELSSLRSEDTAVYYCARDLRRGGVGDAFDIWGRGTLVTVSSASTKGPSVFPLAPSSKSTSGGTAALGCLVKDYFPEPVTVSWNSGALTSGVHTFPAVLQSSGLYSLSSVVTVPSSSLGTQTYICNVNHKPSNTKVDKRVEPKSCDKTHTCPPCPAPELLGGPDVFLFPPKPKDTLMISRTPEVTCVVVDVSHEDPEVKFNWYVDGVEVHNAKTKPREEQYNSTYRVVSVLTVLHQDWLNGKEYKCKVSNKALPLPEEKTISKAKGQPREPQVYTLPPSREEMTKNQVSLWCLVKGFYPSDIAVEWESNGQPENNYKTTPPVLDSDGSFFLYSKLTVDKSRWQQGNVFSCSVMHEALHNHYTQKSLSLSPG
light 2: QSALTQPRSVSGSPGQSVTISCTGTSPDVGSHAYRSWYQQHPGKAPKLMIYEVSYRPSGVSNRFSGSKSGNTASLTISGLQAEDEADYYCSSYPPSSATVFGAGTKLTVLGQPKAAPSVTLFPPSSEELQANKATLVCLISDFYPGAVTVAWKADSSPVKAGVETTTPSKQSNNKYAASSYLSLTPEQWKSHRSYSCQVTHEGSTVEKTVAPTEC
notes: copies: 1 + 1 + 1 + 1

IC50 [3]: 8.4 ng/mL
EC50 (read off the curve) [4]: ~0.04 µg/mL
EC50 [5]: 8.2 ng/mL
B2: anti-TIGIT monospecific antibody BA148 (antibody, human IgG1, lambda)
heavy: EVQLVQSGAEVKKPGSSVKVSCKASGYTFASYGISWVRQAPGQGLEWMGGITPFFNRVDVAEKFQGRVTITADKSTSTAYIELSSLRSEDTAVYYCARDLRRGGVGDAFDIWGRGTLVTVSSASTKGPSVFPLAPSSKSTSGGTAALGCLVKDYFPEPVTVSWNSGALTSGVHTFPAVLQSSGLYSLSSVVTVPSSSLGTQTYICNVNHKPSNTKVDKRVEPKSCDKTHTCPPCPAPELLGGPDVFLFPPKPKDTLMISRTPEVTCVVVDVSHEDPEVKFNWYVDGVEVHNAKTKPREEQYNSTYRVVSVLTVLHQDWLNGKEYKCKVSNKALPLPEEKTISKAKGQPREPQVYTLPPSREEMTKNQVSLTCLVKGFYPSDIAVEWESNGQPENNYKTTPPVLDSDGSFFLYSKLTVDKSRWQQGNVFSCSVMHEALHNHYTQKSLSLSPGK
light: QSALTQPRSVSGSPGQSVTISCTGTSPDVGSHAYRSWYQQHPGKAPKLMIYEVSYRPSGVSNRFSGSKSGNTASLTISGLQAEDEADYYCSSYPPSSATVFGAGTKLTVLGQPKAAPSVTLFPPSSEELQANKATLVCLISDFYPGAVTVAWKADSSPVKAGVETTTPSKQSNNKYAASSYLSLTPEQWKSHRSYSCQVTHEGSTVEKTVAPTEC
notes: IgG1; also called anti-TIGIT IgG1 antibody BA148

Kd [6]: 0.611 nM
koff [6]: 0.000385 s⁻¹
kon [6]: 631000 M⁻¹ s⁻¹
B3: anti-TIGIT×CD96 multispecific molecule BA127 (bispecific antibody, human IgG1, kappa, lambda)
heavy 1: QVQLVQSGAEVKKPGASVKVSCKASGYTFTTYALHWVRQAPGQRLEWMGWINTGSGDTKYSQKFQGRVTITRDTSASTAYMELSSLRSEDTAVYYCARSLGVYYGMDVWGQGTLVTVSSASTKGPSVFPLAPSSKSTSGGTAALGCLVKDYFPEPVTVSWNSGALTSGVHTFPAVLQSSGLYSLSSVVTVPSSSLGTQTYICNVNHKPSNTKVDKRVEPKSCDKTHTCPPCPAPELLGGPDVFLFPPKPKDTLMISRTPEVTCVVVDVSHEDPEVKFNWYVDGVEVHNAKTKPREEQYNSTYRVVSVLTVLHQDWLNGKEYKCKVSNKALPAPIEKTISKAKGQPREPQVYTLPPSREEMTKNQVSLSCAVKGFYPSDIAVEWESNGQPENNYKTTPPVLDSDGSFFLVSKLTVDKSRWQQGNVFSCSVMHEALHNHYTQKSLSLSPG
light 1: not shown
heavy 2: EVQLVQSGAEVKKPGSSVKVSCKASGYTFASYGISWVRQAPGQGLEWMGGITPFFNRVDVAEKFQGRVTITADKSTSTAYIELSSLRSEDTAVYYCARDLRRGGVGDAFDIWGRGTLVTVSSASTKGPSVFPLAPSSKSTSGGTAALGCLVKDYFPEPVTVSWNSGALTSGVHTFPAVLQSSGLYSLSSVVTVPSSSLGTQTYICNVNHKPSNTKVDKRVEPKSCDKTHTCPPCPAPELLGGPDVFLFPPKPKDTLMISRTPEVTCVVVDVSHEDPEVKFNWYVDGVEVHNAKTKPREEQYNSTYRVVSVLTVLHQDWLNGKEYKCKVSNKALPLPEEKTISKAKGQPREPQVYTLPPSREEMTKNQVSLWCLVKGFYPSDIAVEWESNGQPENNYKTTPPVLDSDGSFFLYSKLTVDKSRWQQGNVFSCSVMHEALHNHYTQKSLSLSPG
light 2: QSALTQPRSVSGSPGQSVTISCTGTSPDVGSHAYRSWYQQHPGKAPKLMIYEVSYRPSGVSNRFSGSKSGNTASLTISGLQAEDEADYYCSSYPPSSATVFGAGTKLTVLGQPKAAPSVTLFPPSSEELQANKATLVCLISDFYPGAVTVAWKADSSPVKAGVETTTPSKQSNNKYAASSYLSLTPEQWKSHRSYSCQVTHEGSTVEKTVAPTEC
notes: Anti-CD96 arm = BA139, anti-TIGIT arm = BA150; copies: 1 + 1 + 1 + 1
